Consider one substance from patent US20190328865A1.

The target of the test is dipeptidyl peptidase 4 (DPP4), cellular receptor on Huh-7 cells (human) (UniProt P27487). Kind of test: cell-based or functional assay.
Chain of UniProt P27487 (P27487 whole entry): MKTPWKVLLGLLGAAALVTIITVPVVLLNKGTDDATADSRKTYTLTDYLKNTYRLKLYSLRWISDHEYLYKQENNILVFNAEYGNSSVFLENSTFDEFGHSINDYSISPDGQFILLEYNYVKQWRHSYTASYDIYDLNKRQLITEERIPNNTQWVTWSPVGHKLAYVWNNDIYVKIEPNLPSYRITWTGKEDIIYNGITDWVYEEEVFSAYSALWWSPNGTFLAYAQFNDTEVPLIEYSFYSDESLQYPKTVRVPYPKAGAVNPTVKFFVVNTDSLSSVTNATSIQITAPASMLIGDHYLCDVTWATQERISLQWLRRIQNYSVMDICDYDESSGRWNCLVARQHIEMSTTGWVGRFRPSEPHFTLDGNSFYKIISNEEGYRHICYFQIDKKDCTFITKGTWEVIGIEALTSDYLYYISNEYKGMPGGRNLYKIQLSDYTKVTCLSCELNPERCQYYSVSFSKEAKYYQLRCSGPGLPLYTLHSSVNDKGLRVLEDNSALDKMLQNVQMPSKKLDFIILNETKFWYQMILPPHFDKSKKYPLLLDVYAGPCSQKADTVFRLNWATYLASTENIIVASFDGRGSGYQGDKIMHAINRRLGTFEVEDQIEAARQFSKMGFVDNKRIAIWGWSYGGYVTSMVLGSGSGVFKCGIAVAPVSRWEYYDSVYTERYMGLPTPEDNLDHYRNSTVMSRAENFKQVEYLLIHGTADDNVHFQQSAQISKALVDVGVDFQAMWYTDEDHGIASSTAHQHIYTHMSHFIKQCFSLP

For the substance “S377-588-Fc (residues 377-588 of MERS-CoV S protein fused to Fc of human IgG) (Fc fusion)”, the inhibition of CPE formation caused by MERS-CoV infection in Calu-3 cells came to 3 µg/mL.
